For two substances, Kd and stoichiometry N results are on record in PMC8376927.

Test [1] has as its target DAPK2_RNTD, full-length human DAPK2 mutant with the C terminus S367STS370 changed to R367NTD370, autophosphorylated (human) (UniProt Q9UIK4). The test can be described thus: AUC; sedimentation velocity, DAPK2_RNTD alone at 25-350 μM; 20 °C, 42,000 rev./min; 50 mM HEPES-NaOH pH 7.5, 150 mM NaCl, 1 mM TCEP; dimer to monomers, KD from the ratios of the peak areas.
The target of test [2] is FAM-ctDAPK2-pT369 peptide (FAM-RRRSSpTS) (human). Nature of the test: fluorescence polarisation; 14-3-3γ (160 µM and binary dilution series) incubated 1 h with 50 nM FAM-labelled peptide; 20 mM HEPES-NaOH pH 7.4, 150 mM NaCl, 0.1% Tween 20, 0.1% BSA; one-site-binding model; apparent KD. For orientation: Fluorescence polarisation rises when a labelled molecule tumbles more slowly, as on binding a larger partner.

Test [3] shares this target. The test can be described thus: fluorescence polarisation; as a1 but with 100 µM Fusicoccin A (FC-A); apparent KD.

A word on the stoichiometry N: it is a count of units in the complex or per binding partner. Turning to “DAPK2_RNTD, full-length human DAPK2 mutant with the C terminus S367STS370 changed to R367NTD370, autophosphorylated (from UniProt Q9UIK4 1-370) (enzyme)”, in test [1], the Kd came out at 100000 nM and the stoichiometry N worked out at 2.
As to “Human 14-3-3γ WT (from UniProt P61981 1-247) (natural protein)”, the Kd in test [2] is 114 nM; in test [3], 4.4 nM.
